Target: His-FOR20 (UniProt Q96NB1)
Test: pull-down; purified His-FOR20 (1 μM) and tubulin dimers (1–8 μM) on ice for 1 h, Ni-NTP beads 30 min, supernatant and pellet on Coomassie gel, band intensities fitted to n identical independent sites; apparent Kd

Chain of UniProt Q96NB1 (Q96NB1 whole entry): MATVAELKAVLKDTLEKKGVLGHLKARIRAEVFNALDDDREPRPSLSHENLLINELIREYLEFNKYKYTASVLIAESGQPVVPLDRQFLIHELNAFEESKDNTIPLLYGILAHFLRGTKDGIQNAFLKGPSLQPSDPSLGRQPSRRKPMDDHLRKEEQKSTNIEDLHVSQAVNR

Kd: 3.5 µM
stoichiometry N (tubulin dimers per FOR20): 6
Substance: free tubulin dimers (αβ-tubulin heterodimers) (from UniProt P02550 1-451; P02554 1-445) (complex)

Reference: paper PMC5583970
